These results are taken from US20240084044A1, “Heteromultivalent Nucleic Acid Scaffolds and Uses Thereof” (George Mason University, priority 2022, published 2024).

For assay [1], the target named is ST2/IL-33 binary complex (recombinant FLAG-tagged ST2 extracellular domain with recombinant mature IL-33) (UniProt Q01638). Nature of the assay: SPR (OpenSPR), FLAG-ST2 captured on anti-FLAG mAb and loaded with 50 nM IL-33, IL1RAcP as analyte, 1:1 fit; native IL-1RAcP as analyte.
A further assay deals with T1, ST2/IL-33 binary complex (Homo sapiens, UniProt O95760+Q01638).
T1 construct: included the extracellular domains, K19-F328 and S21-E359, respectively; the cleaved mature proteins, S112-T270, A117-S269, and R2-S310, respectively; purchased Sino Biologicals ST2 10105-HCCH; IL-33 10368-HNAE; host or cells: ST2: HEK293; IL-33: E. coli
T1 sequence (Q01638 19-328 isoform Q01638-2): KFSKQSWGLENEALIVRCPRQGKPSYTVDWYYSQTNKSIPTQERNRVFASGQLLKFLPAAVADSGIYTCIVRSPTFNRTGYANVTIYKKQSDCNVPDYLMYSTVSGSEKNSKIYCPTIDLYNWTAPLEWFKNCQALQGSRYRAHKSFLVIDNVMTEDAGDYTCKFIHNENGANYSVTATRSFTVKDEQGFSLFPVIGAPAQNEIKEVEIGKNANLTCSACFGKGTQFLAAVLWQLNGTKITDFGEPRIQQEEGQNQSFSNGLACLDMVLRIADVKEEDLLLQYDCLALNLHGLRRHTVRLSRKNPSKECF
T1 sequence (O95760 112-270): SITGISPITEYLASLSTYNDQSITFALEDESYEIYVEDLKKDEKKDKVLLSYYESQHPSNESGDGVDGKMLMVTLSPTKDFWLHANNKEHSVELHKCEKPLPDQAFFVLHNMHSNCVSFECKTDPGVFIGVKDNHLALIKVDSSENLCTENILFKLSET
The experiment in a line: SPR dissociation constant for the ST2/IL-33 binary complex. The following applies: SPR, 1:1 fit; read-out: KD to the binary ST2/IL-33 complex. It is filed as binding. The text has this: Recombinant ST2 with truncated FLAG (DDDDK) tag (Cat. #10105-HCCH), His-tagged IL1RAcP (Cat. #10121-H08H), IL-33 (Cat. #10368-HNAE), IL-1β (Cat. #10139-HNAE), and FLAG-tagged SIRT5 (Cat. #19202-H22E) were purchased from Sino Biologicals (Wayne, PA). ST2 and IL1RAcP were expressed in HEK293 cells and included the extracellular domains, K19-F328 and S21-E359, respectively. IL-33, IL-1β, and SIRT5 were expressed in E. coli and included the residue sequence of the cleaved mature proteins, S112-T270, A117-S269, and R2-S310, respectively. Lyophilized ST2, and IL1RAcP were reconstituted in ultrapure (18.5 MΩ) water to a concentration of 0.5 mg/mL (5.6 μM) and stored at −80° C. until use. SIRT5 was reconstituted to 0.2 mg/mL (2.87 μM). To prevent oxidation, IL-33 was reconstituted in 10 mM β-mercaptoethanol (Sigma-Aldrich) to a concentration of 0.1 mg/mL and IL-1β was reconstituted to 0.250 mg/mL. All peptides were purchased from Peptide 2.0 (Chantilly, VA) and designed based on IL1RAcP hotspot residues known to interact with IL-33/ST2 and surrounding residues based on the canonical sequence of IL1RAcP (Uniprot #Q9NPH3). All peptides were modified with acetylated N-terms and amidated C-terms to optimize stability and cyclic peptides cyclized via thioether or disulfide bond. Candidate peptides for the final molecule were also modified with an azido-Lysine and additional N-term alanine or cysteine, to provide the azide group for copper free click chemistry and maintain cyclization. Peptides were stored at −20° C. in lyophilized aliquots of 100 μg or 200 μg and −80° C. after reconstitution in sterile DMSO to a concentration of 10 mM.
SPR experiments were carried out on an OpenSPR instrument (Nicoya). Gold nanoparticle sensor chips (Nicoya) were functionalized by incubation in a solution of ethanol and 10 mM 11-Mercaptoundecanoic acid (MUDA) at RT for a minimum of 48 h, then stored in ethanol at 4° C. until use. Chips were activated with a solution of 200 mM EDC and 50 mM NHS for 3 m at RT. […] Data was analyzed with TraceDrawer software to a 1:1 fit model.

Assay [2] deals with ST2/IL-33 binary complex (recombinant FLAG-tagged ST2 extracellular domain with recombinant mature IL-33) (UniProt Q01638). The experiment in a line: SPR (OpenSPR): FLAG-ST2 captured on anti-FLAG mAb and loaded with IL-33, peptide as analyte, 1:1 fit; five sensorgrams, the highest to about 300 RU.
Assay [3] shares this target. The experiment in a line: SPR (OpenSPR): FLAG-ST2 captured on anti-FLAG mAb and loaded with IL-33, peptide as analyte, 1:1 fit; five sensorgrams, the highest to about 350 RU.
Assay [4] has the same target. The experiment in a line: SPR (OpenSPR): FLAG-ST2 captured on anti-FLAG mAb and loaded with IL-33, peptide as analyte, 1:1 fit; five sensorgrams, the highest to about 390 RU.
Assay [5] has the same target. The experiment in a line: SPR (OpenSPR), FLAG-ST2 captured on anti-FLAG mAb and loaded with IL-33, MSTOP as analyte, 1:1 fit; MSTOP as analyte.
Assay [6] shares this target. The experiment in a line: SPR (OpenSPR): FLAG-ST2 captured on anti-FLAG mAb and loaded with IL-33, MSTOP as analyte, 1:1 fit; sensorgrams to about 620 RU. The text gives 195 nM.
The target is the same in assay [7]. The experiment in a line: DSS cross-linking and western blot, 1 µM MSTOP, competitor IL-1RAcP. On the technique in general: In western blotting, separated proteins are transferred to a membrane and probed.
The target is the same in assay [8]. The experiment in a line: DSS cross-linking and western blot, 10 µM MSTOP, competitor IL-1RAcP, normalised to the untreated trimer control.
Assay [9] concerns the target T2, IL-33/ST2 on HEK-Blue IL-33 reporter cells (recombinant IL-33 with ST2 stably expressed on the cells), Q01638.
T2 chain 1: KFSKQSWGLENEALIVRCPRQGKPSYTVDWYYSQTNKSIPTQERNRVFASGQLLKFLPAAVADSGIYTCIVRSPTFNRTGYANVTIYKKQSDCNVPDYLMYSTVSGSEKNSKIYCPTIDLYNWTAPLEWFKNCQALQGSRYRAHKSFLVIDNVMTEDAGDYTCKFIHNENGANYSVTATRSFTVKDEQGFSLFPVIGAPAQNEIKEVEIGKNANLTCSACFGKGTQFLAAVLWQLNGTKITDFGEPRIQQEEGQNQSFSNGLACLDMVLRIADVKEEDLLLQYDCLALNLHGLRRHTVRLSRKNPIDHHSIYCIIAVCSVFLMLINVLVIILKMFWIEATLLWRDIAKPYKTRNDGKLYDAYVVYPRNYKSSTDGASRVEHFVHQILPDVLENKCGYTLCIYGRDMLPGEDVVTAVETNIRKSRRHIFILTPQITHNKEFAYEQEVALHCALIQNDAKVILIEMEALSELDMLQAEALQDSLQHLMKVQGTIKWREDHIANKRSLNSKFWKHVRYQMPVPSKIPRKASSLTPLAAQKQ
T2 chain 2: T1 sequence (O95760 112-270)
The experiment in a line: cell-based or functional assay.

Assay [10] addresses ST2/IL-33 binary complex (recombinant FLAG-tagged ST2 extracellular domain with recombinant mature IL-33) (UniProt Q01638). The experiment in a line: DSS cross-linking and western blot, 100 nM MSTOP compared with 10 µM free WT peptides, competitor IL-1RAcP.
Assay [11] has the same target. The experiment in a line: SPR (OpenSPR), KD compared.

Bridges are numbered along the chain shown (N, C = ends). Roman numbers before positions name the chains, in order. [ ]: non-standard residue; d: D form. Lys(N3) = [N-]=[N+]=NCCCC[C@H](N)C(=O)O

As to “His-tagged IL1RAcP extracellular domain (S21-E359) (from UniProt Q9NPH3 21-359) (receptor)”, in assay [1], the Kd is 10 µM.

On to “IL-1RAcP: recombinant His-tagged IL-1 receptor accessory protein extracellular domain S21-E359”, for which the Kd with ST2/IL-33 binary complex turned out to be 10 µM.

B1: R157 Ac-C-K(N3)-…-NH2 (S-S) (peptide)
peptide: Ac-C[Lys(N3)]EYGIQRITC-NH2
modifications: disulfide 1-11
SMILES: CC[C@H](C)[C@@H]1NC(=O)CNC(=O)[C@H](Cc2ccc(O)cc2)NC(=O)[C@H](CCC(=O)O)NC(=O)[C@H](CCCCN=[N+]=[N-])NC(=O)[C@@H](NC(C)=O)CSSC[C@@H](C(N)=O)NC(=O)[C@H]([C@@H](C)O)NC(=O)[C@H]([C@@H](C)CC)NC(=O)[C@H](CCCNC(=N)N)NC(=O)[C@H](CCC(N)=O)NC1=O
With B1, the Kd in [2] was found to be 57 µM.

B2: K238 Ac-A-K(N3)-…-NH2 (S) (peptide)
peptide: Ac-A[Lys(N3)]VGSPKNAVPPC-NH2
modifications: thioether 1-13
SMILES: CC(=O)N[C@H]1CSC[C@@H](C(N)=O)NC(=O)[C@@H]2CCCN2C(=O)[C@@H]2CCCN2C(=O)[C@H](C(C)C)NC(=O)[C@H](C)NC(=O)[C@H](CC(N)=O)NC(=O)[C@H](CCCCN)NC(=O)[C@@H]2CCCN2C(=O)[C@H](CO)NC(=O)CNC(=O)[C@H](C(C)C)NC(=O)[C@H](CCCCN=[N+]=[N-])NC1=O
B2: in [3], the Kd was determined as 105 µM.

B3: K343/K346 Ac-C-K(N3)-…-NH2 (S-S) (peptide)
peptide: Ac-C[Lys(N3)]GEVAKAAKVKC-NH2
modifications: disulfide 1-13
SMILES: CC(=O)N[C@H]1CSSC[C@@H](C(N)=O)NC(=O)[C@H](CCCCN)NC(=O)[C@H](C(C)C)NC(=O)[C@H](CCCCN)NC(=O)[C@H](C)NC(=O)[C@H](C)NC(=O)[C@H](CCCCN)NC(=O)[C@H](C)NC(=O)[C@H](C(C)C)NC(=O)[C@H](CCC(=O)O)NC(=O)CNC(=O)[C@H](CCCCN=[N+]=[N-])NC1=O
As for B3, in assay [4], the Kd is 47 µM.

B4: MSTOP prototype (Multivalent Specific Topology-targeting DNA-Origami Peptide Inhibitor): 3-way junction DNA scaffold carrying three cyclized azidolysine … (designed binder)
peptide 1: Ac-CKEYGIQRITC-NH2
peptide 2: Ac-AKVGSPKNAVPPC-NH2
peptide 3: Ac-CKGEVAKAAKVKC-NH2
modifications: disulfide I:1-I:11, III:1-III:13; thioether II:1-II:13; not fully specified (some residues); also: three peptides held on a 3-way junction DNA scaffold via DBCO staple strands
Turning to B4, the Kd was 0.195 µM in assay [5] and 0.127 µM in [6]. Besides, the reduction of trimer formation in [7] turned out to be 40%. Further, the reduction in trimer formation in assay [8] turned out to be 70%. In addition, in assay [9], the IL-33 induced SEAP expression (HEK-Blue IL-33 reporter cells, 1 µM MSTOP) was 40 % reduction. Moreover, the fold increase in efficiency against the 10 µM WT peptide treatment in assay [10] was 100 fold. The fold increase in affinity compared to the individual peptides and IL-1RAcP in assay [11] is 100 fold.
